Experimental data published in article PMC10397247.
Where two headings read alike, the source gives them in different places.

T1: P4SN
T1 chain: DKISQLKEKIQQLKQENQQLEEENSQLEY

T2: P4
T2 chain: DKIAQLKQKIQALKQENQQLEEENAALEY

B1: P3 (peptide)
chain: DEIQQLEEEIAQLEQKNAALKEKNQALKY
B2: P3_WRA (peptide)
chain: DEIQQLEEEIAQLEWKNAARKEKNAQLKA
B3: P3_WA (peptide)
chain: DEIQQLEEEIAQLEWKNAALKEKNAQLKA

Columns and labels:
[1] = biological target: T1, P4SN; assay: two-hybrid library CCmax; conditions: mean of both orientations;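 further: natural log of median RNA to DNA barcode read ratio; higher means stronger binding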
[2] = biological target: T2, P4; assay: two-hybrid library CCmax;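 further: natural log of median RNA to DNA barcode read ratio; higher means stronger binding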

Binder | interaction score [1] | interaction score ([2]; mean of both orientations) | interaction score [2]
B1 | 1.63 | 0.871 | 
B2 | -1.65 |  | -1.51
B3 | 1.9 | 1.5 | 
